Results as given in patent US20260258115A1 (MAPP BIOPHARMACEUTICAL, published 2026).
Positions count from the first letter of the chain named.

B1: ADI-14349 (antibody, V domains shown)
VH: EVQLVESGAEVKKPGSSVKVSCKASGGTLSSYAFSWVRQAPGQGLEWMGGVIPISATSDYAQKFQGRVTITADESTSTVYMELRSLRSEDTAVYYCARDTRYSSGWFYDYWGQGTLVTVSS
VL: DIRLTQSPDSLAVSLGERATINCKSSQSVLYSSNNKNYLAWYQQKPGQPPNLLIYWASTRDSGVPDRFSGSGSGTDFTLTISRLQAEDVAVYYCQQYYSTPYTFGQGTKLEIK
notes: full-length IgG; also called Ab 17
B2: ADI-14391 (antibody, V domains shown)
VH: QVQLVESGGGLVQPGGSLRLSCAAAGFSFSNYAMSWVRQAPGKGLEWVAVISGNAGSTYYAESVKGRFTISRDNSKNTLHLQMNSLRGEDTAVYYCAKPPGIAVAGEYYWYFDLWGRGTLVTVSS
VL: QVQLMQPPSVSVSPGQTARITCSGDALPRENAYWYQQKSGQAPVLVIYEDSKRPSGIPERFSGSSSGTMATLTITGAQVEDEADYYCYSTDTSAYHWVFGGGTKLTVL
notes: full-length IgG; also called Ab 58
B3: ADI-14378 (antibody, V domains shown)
VH: QVQLVESGGGLVQPGGSLRLSCAASGFTFSSYWMHWVRQAPGKGLVWVSRINSDGSSPTYADSVKGRFTISRDNAKNTVFLQMNSLRAEDTAVYYCARESWELIRGDAFDIWGQGTTVTVSS
VL: DIQMTQSPSSLSASVGDRVTITCRASQSISSSLNWYQQKPGKAPNLLIYAASTLQSGVPSRFSGSGSGTDFTLTISSLQPEDFATYYCQQSYRTPRTFGQGTKVEIK
notes: full-length IgG; also called Ab 46
B4: ADI-14370 (antibody, V domains shown)
VH: EVQLVESGGGVVQPGKSLRLSCAASGFSFSTFAMHWVRQAPGKGLEWVAVISYDGSNKFYADSVKGRFTISRDSSKNTLYLQMNSLRAEDTAVYYCARGGYSSGWYVTHFDYWGQGTLVTVSS
VL: QSVLTQPPSASGSPGQSVTISCTGTSSDVGGYNYVSWYQQHPGKAPKLMIYEVSKRPSGVPDRFSGSKSGNTASLTVSGLQAEDEADYYCSSYAGSNNLYVFGTGTKLTVL
notes: full-length IgG; also called Ab 38
B5: ADI-14388 (antibody, V domains shown)
VH: EVQLVESGGGVVQPGRSLRLSCAASGFTFSSYPMHWVRQAPGKGLEWVAVISYDGSNKYYADSVKGRFTISRDNSKNTLYLQMNSLRAEDTAVYSCARAQSAAIFDHWGQGTLVTVSS
VL: QAVVTQEPSLTVSPGGTVTLTCASSTGAVTSGYYPNWFQQKPGQAPRALIYTTSKRHSWTPARFSGSLLGGKAALTLSGVQPEDEADYYCLLYYGGANWVFGGGTKLTVL
notes: full-length IgG; also called Ab 55
B6: ADI-14377 (antibody, V domains shown)
VH: EVQLVESGGGVVQPGGSLRLSCAVSGITFSSYGMHWVRQAPGKGLEWVAFIRYDGSNKYYGDSLRGRFTISRDNSKNTLYLQMNSLRAEDTAVYYCAKDAVGIGGYYGLDVWGQGTTVTVSS
VL: DIQMTQSPSSLSASVGDRVTITCRASQGIRNDLGWYQQKPGKAPKRLIYAASSLQSGVPSRFSGSGSGTEFTLTISSLQPEDFATYYCLQHNGYPWTFGQGTKVEIK
notes: full-length IgG; also called Ab 45
B7: ADI-19488 (antibody, V domains shown)
VH: QVQLVQSGAEVKKPGASVKVSCKVSGYTLTELSMHWVRQAPGKGLEWMGGFDPEDGETIYAQKFQGRVTMTEDTSTDTAYMELSSLRSEDTAVYYCATARFLEWLSGTNWFDPWGQGTLVTVSS
VL: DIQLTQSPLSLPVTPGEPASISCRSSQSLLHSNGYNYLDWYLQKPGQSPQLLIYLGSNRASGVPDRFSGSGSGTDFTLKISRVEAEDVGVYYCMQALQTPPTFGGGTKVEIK
notes: full-length IgG; also called Ab 190
B8: ADI-19487 (antibody, V domains shown)
VH: QVTLKESGPALVKPTQTLTLTCTFSGLSISTSGMCVSWIRQPPGKALEWLARIDWDDDKYYSTSLKTRLTISKDTSKNQVVLTMTNMDPVDTATYYCARINYYDSSGYYVYYFDYWGQGTLVTVSS
VL: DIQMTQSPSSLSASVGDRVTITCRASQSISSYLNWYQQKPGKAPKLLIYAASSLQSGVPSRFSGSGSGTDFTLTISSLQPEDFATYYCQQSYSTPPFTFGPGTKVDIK
B9: ADI-14374 (antibody, V domains shown)
VH: QVQLVQSGGVVVQPGGSLRLSCAASGFNFDDFTMHWVRQAPGKGLEWVSLITWDGGITYYADSVKGRFTISRDNGKNSLYLRMNSLRTEDTALYYCAKDGDRYSGYAFLDYWGQGTLVTVSS
VL: SYELTQPPSVSVAPGKTARLTCGGNNIGSESVHWYQQRPGQAPVLVSYYNGDRPSGIAERISASKSGNTATLTIYRVEAGDEADYYCQVWHSSSDHFVFGTGTQLTVL
notes: full-length IgG; also called Ab 42
B10: ADI-41349 (antibody, V domains shown)
VH: EVQLLESGGGLVQPGRSLRLSCTGSGFTFGDYAMNWVRQAPGKGLEWVGLIRSKDYGGTTEFAASLKGRLTISRDDSKSIAYLQMHSLKTEDSAVYYCTRAHLTDYTDINGYQYYFDYWGQGSPVTVSS
VL: DIQMTQSPSSLSASVGDRVTITCQASQDISNFLNWYQQRPGKAPKLLIHDASNLETGVPSRFSGSGSRTEFTFTISSLQPEDIGTYYCQHYDNFPYTFGQGTKVEIK
B11: ADI-41348 (antibody, V domains shown)
VH: QVQLQESGPGLVKPSQTLSLTCAVSGGSISSGGYYWSWIRQHPGKGLEWIGYIYYSGSTYYNPSLKSPVTISVDTSKNQFSLKLTSVTAADTAVYYCARGDYYFDGSGRTTAAFDIWGQGTMVTVSS
VL: DIQVTQSPSSLSASVGDRVTITCRASQSISTFLNWYQQKPGRAPKLLIYDASNLQSGVPSRVSGSGSGTDFTLTISSLHPEDFATYYCQQSYTTPYTFGQGTKVDIK
B12: ADI-41515 (antibody, V domains shown)
VH: QVQLVESGGGLVQPGGSLRLSCAASGFTFSDYAMSWVRQAPGKGLVWVSSISGSGKFTYYEDSLRGRVTISRDNSKNTVYLHMNSLRTEDTALYYCARLRIPVINEVDGAMDVWGQGTTVTVSS
VL: SYELTQLPSVSVSPGQTARITCSGDALPKKFAYWYQQKSGQAPVLVIYEDTGRPSGIPERFSGSTSGTTATLTINGAQVEDEGDYYCYSADSSDNQGVFGGGTKVTVL
B13: ADI-41522 (antibody, V domains shown)
VH: QVQLVQSGAEVKKPGSSVKVSCKASGGTFNNFPISWVRQAPGQGLEWMGGIIPMFGRANYAQKFQGRVTITADESTTTVYMALRSLRSEDTAVYYCARPDYDVLTGFEGAFDIWGQGTMVTVSS
VL: QSALTQPASVSGSPGQLITISCTGTSRDVGGYNYVSWYQQHPGKAPKLMIYDVTNRPSGVSNRFSGSKSGNTASLTISGLQSEDEADYYCSSYTSTTTWVFGGGTKLTVL
B14: ADI-41542 (antibody, V domains shown)
VH: EVQLVESGVAVKKPGESLKISCKGSGYNFDSFWIGWVRQLPGKGLEWMGIIFPGDSDTRYGPSFQGQVTISADKSINTAYLQWRSLKASDTAMYYCARHGLGGYDNSGYNLWGHGTMVTVSS
VL: DIVMTQSPSSLSASVGDRVTITCQASHDISTSLNWYQQKPGKAPNLLISDASTLERGVPSRFSGGGSGTEFTFTISSLQPEDIATYYCQQFENLPITFGQGTRLEIK
B15: ADI-41520 (antibody, V domains shown)
VH: EVQLLESGGGVVRPGGSLRLSCAASGFSFDDYGMTWVRQAPGKGLEWVSGINWNGISTDYADSVKGRFTISRDNAKNSVYLQMNSLRAEDTALYYCARIGGVVVIASTAYYYGMDVWGQGTTVTVSS
VL: DIQLTQSPSSLSAYVGDRVTITCRASQSIRNHLNWYQQKPGKAPQLLIYTASSLQDGVPSRFSGSGSGTDFTLAISSLQPEDFATYYCQQSHSMPPTFGQGTRLEIK
B16: ADI-41467 (antibody, V domains shown)
VH: EVQLVESGGGLVKPGGSLRLSCAASGFSFSSYNMNWVRQAPGKGLEWVSSISGGSSFVNYADSVKGRFTISRDNAKNSLYLQMSSLKAEDTAIYYCARDPVYCSAASCSAYFDSWGQGSLVTVSS
VL: QSVLTQPPSVSGAPGQRVTISCTGSSSNIGAGYDVHWYQQLPGTAPKLLIYGNNNRPSGVPDRFSGFKSGSSASLAITGLQAEDEADYYCQSYDIGLSDSHVVFGGGTQLTVL
B17: ADI-41505 (antibody, V domains shown)
VH: QVQLQQSGAGLLKPSETLSLTYVVYGGSFSGYYWSWIRQPPGKGLEWVGDINHSTTTNYNPSLESRITISIDTSKNQFSLNLSSVTAADSAVYYCARGPKECTSSSCDRFGVDYFYYGMDVWGRGTTVTVSS
VL: QSVLTQPPSVSGAPGQRVTISCTGSSANIGAGYDVHWYQQFPGTAPKLLIFGNSNRPSGVPDRFSGSKSGTSASLAITGLQAGDEADYYCQSYDGTLGGWVFGGGTQLTVL
B18: ADI-41518 (antibody, V domains shown)
VH: EVQLVESGGGLVKPGGSLRLSCAASGFTFSSYSMNWVRQAPGKGLEWVSSISSSSSYINYADSVKGRFTISRDNAKNSLYLQMNSLRAEDTALYYCARDLGYCSDTSCTPGIGYWGQGTLVTVSS
VL: B17 VL with S2P, A27S, F41L, F51Y, G83E, G95S, T96G, G98S, G99P, Q107K
B19: ADI-41519 (antibody, V domains shown)
VH: QVQLVESGPGLVKPSETLSLTCNVSGGSIITSGSYWGWIRQPPGKGLTWIGSISYSGTTYYNPSLRSRLTISLDTSRNHFSLQLTSVSAADTAVYYCARAFYEVWTGSEIPGDFDRWGQGTLVTVSS
VL: EIVLTQSPGTLSLSPGERATLSCRASQSVSSSYLAWYQQKPGQAPRLLIYGASSRAIDIPDRFSGSGSGTDFTLTISRLEPEDFAVYYCQQFRRSPWTFGQGTKVDIK
B20: ADI-43643 (antibody, V domains shown)
VH: QVQLVQSGGGLVKPGGSLRLSCAASGFTFSSYSMNWVRQAPGKGLEWVSSISSSSSYIYYADSVKGRFTISRDNAKNSLYLQMNSLRAEDTAVYYCARVLSGYSYGYDYWGQGTLVTVSS
VL: QSVLTQPPSVSGAPGQRVTISCTGSSSNIGAGYDVHWYQQLPGTAPKLLIYGNSNRPSGVPDRFSGSKSGTSASLAITGLQAEDEADYYCQSYDSSLSGSVFGTGTKVTVL

These binders were tested against RSV F on RSV subtype B virus (mKate-RSV B 18537) (respiratory syncytial virus B 18537, UniProt P13843 26-574) (assay: cell-based or functional assay).

Going from B1 to B2, the “Neut IC50 subtype B” value rises from 1.84 µg/mL to 22.2 µg/mL (12-fold).

Compared with B3, B4 is 16-fold lower in “Neut IC50 subtype B” value: 21.6 µg/mL for the first, 1.38 µg/mL for the second.

B5 and B6 are within 1.5-fold of each other in “Neut IC50 subtype B” value: 3.07 µg/mL for the first, 2.13 µg/mL for the second.

Compared with B7, B8 is 2.4-fold higher in “Neut IC50 subtype B” value: 3.38 µg/mL for the first, 7.96 µg/mL for the second.

With B9 the “Neut IC50 subtype B” value was 0.86 µg/mL.

The binders below were run against T1, RSV postfusion F (postF), subtype A (respiratory syncytial virus subtype A, UniProt P03420 26-513) (assay: BLI).
T1 construct: also called Postfusion subtype A; F deltaFP

B1: no binding.
B2: no binding.
B5: no binding.
B6: no binding.
B7: no binding.

Each binder was assayed against RSV F on RSV-A2 virus (Respiratory syncytial virus (RSV-A2)) (assay: cell-based or functional assay).

Compared with B10, B11 is lower in “Neutralization IC50 (RSV subtype A)” value: over 25 µg/mL for the first, 0.0765 µg/mL for the second.

The binders below were run against RSV F on RSV-A2 virus (Respiratory Syncytial Virus (RSV-A2), UniProt P03420 26-574) (assay: cell-based or functional assay).

B12 and B13 cannot be ordered by “Neutralization IC50 (RSV subtype A)” value: over 25 µg/mL for the first, over 25 µg/mL for the second.

Compared with B14, B15 is higher in “Neutralization IC50 (RSV subtype A)” value: 0.69 µg/mL for the first, over 25 µg/mL for the second.

B16 and B17 cannot be ordered by “Neutralization IC50 (RSV subtype A)” value: over 25 µg/mL for the first, over 25 µg/mL for the second.

B18 and B19 cannot be ordered by “Neutralization IC50 (RSV subtype A)” value: over 25 µg/mL for the first, over 25 µg/mL for the second.

B20 was tested, and the “Neutralization IC50 (RSV subtype A)” value was over 25 µg/mL.

What follows are binders tested against T2, RSV prefusion F (preF), subtype B (respiratory syncytial virus subtype B) (assay: BLI, IgG).
T2 construct: also called Prefusion subtype B

B1 and B2 are within 1.5-fold of each other in Kd: 4.07 nM for the first, 5.36 nM for the second.

B3 and B4 are within 1.5-fold of each other in Kd: 6.1 nM for the first, 4.18 nM for the second.

B5 and B6 are within 1.5-fold of each other in Kd: 5.5 nM for the first, 5.28 nM for the second.

First: B7
Second: B9
The Kd of the first is 5.1-fold higher: 10.7 nM for the first, 2.09 nM for the second.
